The record followed here is patent US20260184748A1 (University of Pennsylvania, published 2026).

Where no end group is shown, it is not given here.

Holding throughout (assay): cell-based or functional assay
The target of assay [1] is T1, OXTR (UniProt P30559 1-389).
T1 sequence (looked up): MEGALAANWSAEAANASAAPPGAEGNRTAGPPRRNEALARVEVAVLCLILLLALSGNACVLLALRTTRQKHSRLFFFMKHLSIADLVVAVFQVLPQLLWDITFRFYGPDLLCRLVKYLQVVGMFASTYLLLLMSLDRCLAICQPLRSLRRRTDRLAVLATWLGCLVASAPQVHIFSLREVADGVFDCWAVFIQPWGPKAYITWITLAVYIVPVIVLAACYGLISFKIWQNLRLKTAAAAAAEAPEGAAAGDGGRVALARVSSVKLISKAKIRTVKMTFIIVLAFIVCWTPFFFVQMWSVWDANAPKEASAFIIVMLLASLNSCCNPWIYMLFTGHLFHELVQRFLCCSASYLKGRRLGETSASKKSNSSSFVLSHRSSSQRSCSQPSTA

For assay [2], the target named is T2, F2RL3 (UniProt Q96RI0 18-385, limits assumed).
T2 sequence (looked up): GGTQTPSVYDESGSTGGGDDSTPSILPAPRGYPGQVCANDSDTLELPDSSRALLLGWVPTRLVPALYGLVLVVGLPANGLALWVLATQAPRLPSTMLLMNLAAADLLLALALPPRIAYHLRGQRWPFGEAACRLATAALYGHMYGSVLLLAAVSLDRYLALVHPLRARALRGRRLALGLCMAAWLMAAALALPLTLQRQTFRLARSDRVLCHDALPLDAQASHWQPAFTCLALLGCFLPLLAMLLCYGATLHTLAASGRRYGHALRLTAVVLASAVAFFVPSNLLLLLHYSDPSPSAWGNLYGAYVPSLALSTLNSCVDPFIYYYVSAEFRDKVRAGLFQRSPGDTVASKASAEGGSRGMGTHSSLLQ

Assay [3] concerns the target T3, NPSR1B (UniProt Q6W5P4-4 1-377, limits assumed).
T3 sequence (looked up): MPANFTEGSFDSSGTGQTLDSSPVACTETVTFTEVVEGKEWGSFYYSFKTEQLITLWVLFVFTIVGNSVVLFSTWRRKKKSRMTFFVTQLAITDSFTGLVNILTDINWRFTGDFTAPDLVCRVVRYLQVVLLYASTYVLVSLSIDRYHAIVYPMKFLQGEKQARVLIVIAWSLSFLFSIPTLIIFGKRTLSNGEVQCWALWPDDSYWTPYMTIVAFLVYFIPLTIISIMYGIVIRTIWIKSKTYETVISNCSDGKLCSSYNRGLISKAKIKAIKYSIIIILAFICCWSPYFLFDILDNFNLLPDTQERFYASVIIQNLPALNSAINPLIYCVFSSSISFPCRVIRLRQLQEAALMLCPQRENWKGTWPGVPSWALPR

The target of assay [4] is PTGFR (UniProt P43088 1-359).
Assay [5] concerns the target T4, CXCR1 (UniProt P25024 1-350).
T4 sequence (looked up): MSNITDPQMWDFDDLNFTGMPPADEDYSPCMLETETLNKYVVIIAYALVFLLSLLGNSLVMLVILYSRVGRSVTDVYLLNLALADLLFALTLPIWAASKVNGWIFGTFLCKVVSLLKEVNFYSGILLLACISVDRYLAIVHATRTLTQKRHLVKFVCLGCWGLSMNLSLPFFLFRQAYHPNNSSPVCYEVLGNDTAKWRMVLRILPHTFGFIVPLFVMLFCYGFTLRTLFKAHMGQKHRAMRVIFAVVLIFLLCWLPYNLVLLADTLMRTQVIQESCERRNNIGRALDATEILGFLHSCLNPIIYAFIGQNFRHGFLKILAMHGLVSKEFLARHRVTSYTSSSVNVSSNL

Assay [6] addresses T5, GIPR (UniProt P48546 22-466).
T5 sequence (looked up): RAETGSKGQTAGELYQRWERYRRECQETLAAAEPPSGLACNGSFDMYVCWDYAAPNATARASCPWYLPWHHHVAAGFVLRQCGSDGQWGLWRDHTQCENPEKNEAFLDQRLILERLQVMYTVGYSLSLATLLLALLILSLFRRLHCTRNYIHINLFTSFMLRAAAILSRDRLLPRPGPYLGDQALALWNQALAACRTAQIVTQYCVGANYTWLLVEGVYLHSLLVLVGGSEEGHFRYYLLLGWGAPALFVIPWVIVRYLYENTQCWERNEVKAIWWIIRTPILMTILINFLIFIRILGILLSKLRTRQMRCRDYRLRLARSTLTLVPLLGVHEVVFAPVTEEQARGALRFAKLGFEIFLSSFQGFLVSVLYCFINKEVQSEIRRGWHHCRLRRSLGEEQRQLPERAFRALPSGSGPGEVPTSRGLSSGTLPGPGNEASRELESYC

In assay [7] the target is GPR92 (UniProt Q9H1C0 1-372).
Assay [8] has as its target PROKR1 (UniProt Q8TCW9 1-393).
In assay [9] the target is C5L2 (UniProt Q9P296 1-337).
The target of assay [10] is MC1R (UniProt Q01726 1-317).
In assay [11] the target is T6, CCR10 (UniProt P46092 1-362).
T6 sequence (looked up): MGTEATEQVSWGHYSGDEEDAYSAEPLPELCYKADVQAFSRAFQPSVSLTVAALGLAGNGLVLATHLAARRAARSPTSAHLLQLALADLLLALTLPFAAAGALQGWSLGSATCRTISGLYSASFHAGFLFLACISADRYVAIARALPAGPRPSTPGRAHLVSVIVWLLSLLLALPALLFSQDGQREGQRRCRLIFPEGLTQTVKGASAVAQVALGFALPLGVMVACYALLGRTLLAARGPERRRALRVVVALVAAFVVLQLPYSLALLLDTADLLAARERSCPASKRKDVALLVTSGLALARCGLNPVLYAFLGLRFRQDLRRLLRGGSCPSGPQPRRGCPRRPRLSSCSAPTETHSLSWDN

Chain of MC1R (Q01726 whole entry): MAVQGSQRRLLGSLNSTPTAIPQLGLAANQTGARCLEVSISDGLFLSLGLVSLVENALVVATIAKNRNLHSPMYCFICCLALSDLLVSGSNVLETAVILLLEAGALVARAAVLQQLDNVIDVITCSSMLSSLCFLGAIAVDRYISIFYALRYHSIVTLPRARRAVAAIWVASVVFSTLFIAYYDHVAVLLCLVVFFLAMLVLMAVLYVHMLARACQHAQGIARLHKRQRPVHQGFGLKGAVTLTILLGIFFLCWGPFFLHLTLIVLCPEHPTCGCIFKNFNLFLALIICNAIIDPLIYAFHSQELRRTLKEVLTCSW
Chain of PTGFR (P43088 whole entry): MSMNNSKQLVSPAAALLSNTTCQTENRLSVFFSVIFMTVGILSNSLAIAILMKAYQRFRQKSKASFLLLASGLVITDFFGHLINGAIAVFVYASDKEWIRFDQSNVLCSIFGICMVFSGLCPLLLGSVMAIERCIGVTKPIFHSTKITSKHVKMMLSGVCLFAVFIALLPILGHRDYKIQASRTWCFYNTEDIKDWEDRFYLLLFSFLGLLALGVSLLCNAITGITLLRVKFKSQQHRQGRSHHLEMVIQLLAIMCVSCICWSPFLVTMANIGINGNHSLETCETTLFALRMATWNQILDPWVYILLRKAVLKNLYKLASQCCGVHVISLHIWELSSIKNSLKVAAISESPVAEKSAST
Chain of C5L2 (Q9P296 whole entry): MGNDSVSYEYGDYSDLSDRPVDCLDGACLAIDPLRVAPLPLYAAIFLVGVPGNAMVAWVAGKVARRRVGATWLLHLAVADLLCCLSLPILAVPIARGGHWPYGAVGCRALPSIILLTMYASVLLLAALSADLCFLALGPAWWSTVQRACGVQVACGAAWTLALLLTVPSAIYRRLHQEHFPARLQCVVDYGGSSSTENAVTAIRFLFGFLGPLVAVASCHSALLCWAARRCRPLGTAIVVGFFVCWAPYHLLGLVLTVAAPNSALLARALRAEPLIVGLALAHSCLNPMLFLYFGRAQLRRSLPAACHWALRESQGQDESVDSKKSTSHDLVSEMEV
Chain of PROKR1 (Q8TCW9 whole entry): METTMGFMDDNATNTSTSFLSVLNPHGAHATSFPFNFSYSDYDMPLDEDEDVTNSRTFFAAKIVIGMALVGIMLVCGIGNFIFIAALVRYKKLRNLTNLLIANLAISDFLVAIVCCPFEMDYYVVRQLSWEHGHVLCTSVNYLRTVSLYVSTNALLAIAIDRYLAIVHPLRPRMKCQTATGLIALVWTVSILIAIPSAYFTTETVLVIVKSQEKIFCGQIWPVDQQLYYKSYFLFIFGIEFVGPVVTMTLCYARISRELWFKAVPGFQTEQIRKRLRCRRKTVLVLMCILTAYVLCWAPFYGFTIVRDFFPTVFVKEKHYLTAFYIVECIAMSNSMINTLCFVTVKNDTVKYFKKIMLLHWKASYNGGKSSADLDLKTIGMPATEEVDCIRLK
Chain of GPR92 (Q9H1C0 whole entry): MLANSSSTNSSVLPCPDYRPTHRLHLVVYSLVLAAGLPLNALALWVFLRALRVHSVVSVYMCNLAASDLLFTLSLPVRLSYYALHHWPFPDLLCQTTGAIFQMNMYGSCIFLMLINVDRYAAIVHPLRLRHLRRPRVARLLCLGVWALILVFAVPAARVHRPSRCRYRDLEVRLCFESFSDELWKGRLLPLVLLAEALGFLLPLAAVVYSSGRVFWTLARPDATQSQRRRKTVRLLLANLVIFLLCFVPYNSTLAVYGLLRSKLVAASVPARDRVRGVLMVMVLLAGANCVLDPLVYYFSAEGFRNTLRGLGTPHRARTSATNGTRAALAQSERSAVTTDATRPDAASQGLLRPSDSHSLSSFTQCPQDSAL

Consider QATVGDVNTDRPGLLDLK (also: synthesised on Rink amide resin, C-terminal amide not given here outright) [octadecaneuropeptide (ODN)], for which the “% Activity, arrestin, antagonist mode, 2.5 uM” value in assay [1] was 1.3%; in assay [2] it was -25.9%; in assay [3], 15.5%; in assay [4] it was -8.4%; in assay [5], 10.2%; in assay [6], -18.9%. Further, the “% Activity, arrestin, antagonist mode, 2.5 uM” value was 10.6% in [7]; -12.4% in [8]; 3.5% in assay [9]; 0.4% in assay [10]; -16.6% in [11].
